Target: CN391 (CNA_(1–391)/CNB_(1–170)) (UniProt Q08209 1-391; P63098 1-170)
Experiment: ITC

Chain of CN391 (CNA_(1–391)/CNB_(1–170)) (Q08209 1-391, chain 1 of 2): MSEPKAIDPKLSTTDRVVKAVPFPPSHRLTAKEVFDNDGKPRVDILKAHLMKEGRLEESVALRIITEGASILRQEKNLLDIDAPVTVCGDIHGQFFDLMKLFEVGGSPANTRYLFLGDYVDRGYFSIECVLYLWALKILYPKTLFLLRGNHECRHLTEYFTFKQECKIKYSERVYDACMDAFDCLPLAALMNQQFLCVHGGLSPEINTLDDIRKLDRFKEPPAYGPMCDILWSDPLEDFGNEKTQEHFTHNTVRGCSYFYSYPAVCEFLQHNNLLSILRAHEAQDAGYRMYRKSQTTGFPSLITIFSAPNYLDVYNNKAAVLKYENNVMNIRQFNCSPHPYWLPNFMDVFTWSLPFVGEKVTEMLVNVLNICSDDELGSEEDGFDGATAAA
Chain of CN391 (CNA_(1–391)/CNB_(1–170)) (P63098 whole entry, chain 2 of 2): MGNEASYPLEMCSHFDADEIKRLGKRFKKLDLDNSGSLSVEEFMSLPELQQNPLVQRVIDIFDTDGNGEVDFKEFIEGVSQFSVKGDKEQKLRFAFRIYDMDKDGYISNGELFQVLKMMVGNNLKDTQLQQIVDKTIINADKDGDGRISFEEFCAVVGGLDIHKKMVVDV

| Kd | dH | Binder |
| --- | --- | --- |
| 16 ± 5 nM | -30.7 ± 0.8 kcal/mol | RCAN1 CN-binding domain (residues 89 to 197) (domain or fragment) not shown |
| 429 ± 85 nM | -32.4 ± 1.6 kcal/mol | p38-phosphorylated RCAN1 (residues 89 to 197) (domain or fragment, pS108, pS112, pT124, pT153, pT192 (pT152 partially, much more slowly)) not shown |

Source: paper PMC7458460 (Science Advances, 2020)
